Assay results from patent publication US20240182536A1 (MURAL ONCOLOGY, published 2024).

What was measured:
Assay in all cases: cell-based or functional assay
[1] = target: T1, IL-18 receptors on HEK-Blue IL-18 reporter cells (UniProt Q13478 19-541; O95256 20-599, limits assumed)
T1 sequence (looked up) 1: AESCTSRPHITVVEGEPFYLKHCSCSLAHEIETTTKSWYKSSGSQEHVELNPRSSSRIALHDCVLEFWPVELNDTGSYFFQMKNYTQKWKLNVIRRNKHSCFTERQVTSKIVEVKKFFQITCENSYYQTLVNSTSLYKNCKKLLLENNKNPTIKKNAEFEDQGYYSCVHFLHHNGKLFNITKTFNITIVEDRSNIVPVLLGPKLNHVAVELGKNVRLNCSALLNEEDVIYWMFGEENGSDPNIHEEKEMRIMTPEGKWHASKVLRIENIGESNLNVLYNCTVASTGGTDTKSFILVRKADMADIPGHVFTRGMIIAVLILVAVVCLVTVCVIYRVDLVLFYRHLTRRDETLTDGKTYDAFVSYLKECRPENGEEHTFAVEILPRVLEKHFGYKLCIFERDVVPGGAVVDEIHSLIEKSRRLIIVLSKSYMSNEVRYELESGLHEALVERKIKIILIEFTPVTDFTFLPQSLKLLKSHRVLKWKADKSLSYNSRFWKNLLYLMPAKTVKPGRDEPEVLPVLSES
T1 sequence (looked up) 2: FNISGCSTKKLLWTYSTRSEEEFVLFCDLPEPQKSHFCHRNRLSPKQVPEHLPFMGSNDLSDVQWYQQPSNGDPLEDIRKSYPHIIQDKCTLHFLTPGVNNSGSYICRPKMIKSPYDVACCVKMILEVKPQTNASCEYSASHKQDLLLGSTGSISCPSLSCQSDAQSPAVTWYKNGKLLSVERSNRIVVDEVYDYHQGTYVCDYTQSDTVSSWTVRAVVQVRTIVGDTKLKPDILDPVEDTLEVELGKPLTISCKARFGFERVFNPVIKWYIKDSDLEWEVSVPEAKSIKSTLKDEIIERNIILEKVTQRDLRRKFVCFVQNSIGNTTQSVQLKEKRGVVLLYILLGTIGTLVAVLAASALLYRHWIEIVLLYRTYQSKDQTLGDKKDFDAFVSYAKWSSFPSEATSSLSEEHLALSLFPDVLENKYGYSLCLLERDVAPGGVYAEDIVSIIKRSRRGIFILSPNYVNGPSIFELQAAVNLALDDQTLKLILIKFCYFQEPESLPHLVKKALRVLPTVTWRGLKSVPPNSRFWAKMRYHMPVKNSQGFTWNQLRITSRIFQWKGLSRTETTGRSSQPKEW

[2] = target: T2, interleukin 18 binding protein (IL-18BP) (UniProt O95998 31-194)
T2 sequence (looked up): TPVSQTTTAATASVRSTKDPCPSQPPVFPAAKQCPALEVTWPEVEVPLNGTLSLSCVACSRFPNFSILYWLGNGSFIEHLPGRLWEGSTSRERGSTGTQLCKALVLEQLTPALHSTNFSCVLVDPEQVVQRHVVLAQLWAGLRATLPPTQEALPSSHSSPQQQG

[3] = target: T3, IL-18 receptors on HEK-Blue IL-18 reporter cells (UniProt Q13478 19-541; O95256 20-599, limits assumed); remark: listed apart in the source
T3 sequence (looked up) 1: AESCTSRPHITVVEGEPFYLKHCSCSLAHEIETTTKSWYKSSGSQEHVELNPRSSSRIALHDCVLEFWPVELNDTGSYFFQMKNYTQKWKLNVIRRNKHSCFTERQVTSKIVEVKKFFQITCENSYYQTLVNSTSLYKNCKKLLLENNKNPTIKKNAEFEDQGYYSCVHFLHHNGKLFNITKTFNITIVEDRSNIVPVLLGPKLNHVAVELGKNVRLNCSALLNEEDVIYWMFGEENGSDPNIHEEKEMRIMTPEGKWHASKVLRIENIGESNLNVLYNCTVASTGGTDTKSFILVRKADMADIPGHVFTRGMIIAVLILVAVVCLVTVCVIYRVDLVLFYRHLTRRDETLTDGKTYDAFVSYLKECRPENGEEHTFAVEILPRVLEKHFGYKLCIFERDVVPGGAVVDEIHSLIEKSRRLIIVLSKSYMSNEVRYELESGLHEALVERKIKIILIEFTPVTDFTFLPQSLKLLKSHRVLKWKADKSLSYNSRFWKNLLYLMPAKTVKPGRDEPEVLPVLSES
T3 sequence (looked up) 2: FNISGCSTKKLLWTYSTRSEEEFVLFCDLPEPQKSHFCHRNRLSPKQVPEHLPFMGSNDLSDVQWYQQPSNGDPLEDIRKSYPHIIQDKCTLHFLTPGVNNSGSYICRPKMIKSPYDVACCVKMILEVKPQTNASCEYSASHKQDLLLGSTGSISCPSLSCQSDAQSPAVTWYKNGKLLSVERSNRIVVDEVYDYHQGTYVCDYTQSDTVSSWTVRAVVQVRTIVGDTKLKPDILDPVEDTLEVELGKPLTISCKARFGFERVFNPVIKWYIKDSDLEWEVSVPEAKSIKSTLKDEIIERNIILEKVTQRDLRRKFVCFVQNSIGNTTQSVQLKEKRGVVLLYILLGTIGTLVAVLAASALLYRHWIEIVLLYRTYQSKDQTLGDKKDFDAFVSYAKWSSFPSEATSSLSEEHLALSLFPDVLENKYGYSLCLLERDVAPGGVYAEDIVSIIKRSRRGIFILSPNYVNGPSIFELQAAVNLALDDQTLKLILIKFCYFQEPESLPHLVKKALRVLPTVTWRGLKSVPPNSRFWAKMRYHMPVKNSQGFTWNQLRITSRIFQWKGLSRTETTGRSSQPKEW

[4] = target: T4, IL-18 binding protein (IL-18BP) (UniProt O95998 31-194)
T4 sequence (looked up): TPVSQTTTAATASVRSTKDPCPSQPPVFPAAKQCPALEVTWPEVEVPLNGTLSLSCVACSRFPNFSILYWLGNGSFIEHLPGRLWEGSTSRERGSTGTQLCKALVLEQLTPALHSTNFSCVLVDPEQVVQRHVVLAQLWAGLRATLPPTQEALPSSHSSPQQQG

Binder | HEK-Blue activity, No BP, DF-10000 [1] | HEK-Blue activity, No BP, DF-100,000 [1] | HEK-Blue activity, No BP, DF-1,000,000 [1] | HEK-Blue activity, +100 nM BP, DF-10000 [2] | HEK-Blue activity, +100 nM BP, DF-100,000 [2] | HEK-Blue activity, +100 nM BP, DF-1,000,000 [2] | Ratio (-BP/+BP), DF-10000 [2] | Ratio (-BP/+BP), DF-100,000 [2] | Ratio (-BP/+BP), DF-1,000,000 [2] | Activity, No BP, DF-100000 [3] | Activity, No BP, DF-500000 [3] | Activity, No BP, DF-2500000 [3] | Activity, +100 nM BP, DF-1000002 [4] | Activity, +100 nM BP, DF-5000003 [4] | Activity, +100 nM BP, DF-25000004 [4] | Ratio (-BP/+BP), DF-1000005 [4] | Ratio (-BP/+BP), DF-5000006 [4] | Ratio (-BP/+BP), DF-25000007 [4]
IL-18 variant T34M, S36T, D37E, D40T, N41M, K53T, S55W (ligand) YFGKLESKLSVIRNLNDQVLFIDQGNRPLFEDMMDTEMRTMAPRTIFIISMYTDWQPRGMAVTISVKSEKISTLSSENKIISFKEMNPPDNIKDTKSDIIFFQRSVPGHDNKMQFESSSYEGYFLASEKERDLFKLILKKEDELGDRSIMFTVQNED | 0.29 | 0.21 | 0.19 | 0.14 | 0.12 | 0.12 | 2.13 | 1.79 | 1.63 |  |  |  |  |  |  |  |  | 
IL-18 variant T34L, S36V, D40A, N41S, K53G, S55W (ligand) YFGKLESKLSVIRNLNDQVLFIDQGNRPLFEDMLDVDMRASAPRTIFIISMYGDWQPRGMAVTISVKSEKISTLSSENKIISFKEMNPPDNIKDTKSDIIFFQRSVPGHDNKMQFESSSYEGYFLASEKERDLFKLILKKEDELGDRSIMFTVQNED | 0.22 | 0.19 | 0.14 | 0.12 | 0.12 | 0.14 | 1.81 | 1.6 | 0.97 |  |  |  |  |  |  |  |  | 
IL-18 variant G3L, E6Q, T63S, N91L, R104P (ligand) YFLKLQSKLSVIRNLNDQVLFIDQGNRPLFEDMTDSDMRDNAPRTIFIISMYKDSQPRGMAVSISVKSEKISTLSSENKIISFKEMNPPDLIKDTKSDIIFFQPSVPGHDNKMQFESSSYEGYFLASEKERDLFKLILKKEDELGDRSIMFTVQNED |  |  |  |  |  |  |  |  |  | 0.15 | 0.09 | 0.1 | 0.1 | 0.08 | 0.07 | 1.44 | 1.11 | 1.34
IL-18 variant K53D, S55Q, H109Y (ligand) YFGKLESKLSVIRNLNDQVLFIDQGNRPLFEDMTDSDMRDNAPRTIFIISMYDDQQPRGMAVTISVKSEKISTLSSENKIISFKEMNPPDNIKDTKSDIIFFQRSVPGYDNKMQFESSSYEGYFLASEKERDLFKLILKKEDELGDRSIMFTVQNED | 0.23 | 0.2 | 0.13 | 0.12 | 0.15 | 0.1 | 1.94 | 1.36 | 1.27 |  |  |  |  |  |  |  |  | 
IL-18 variant G3P, E6S, K53N, D54Y, S55P, T63I, N91K, R104H (ligand) YFPKLSSKLSVIRNLNDQVLFIDQGNRPLFEDMTDSDMRDNAPRTIFIISMYNYPQPRGMAVIISVKSEKISTLSSENKIISFKEMNPPDKIKDTKSDIIFFQHSVPGHDNKMQFESSSYEGYFLASEKERDLFKLILKKEDELGDRSIMFTVQNED |  |  |  |  |  |  |  |  |  | 0.07 | 0.07 | 0.07 | 0.07 | 0.07 | 0.07 | 1.03 | 0.94 | 0.95
IL-18 variant S7Y, K53H, S55M (ligand) YFGKLEYKLSVIRNLNDQVLFIDQGNRPLFEDMTDSDMRDNAPRTIFIISMYHDMQPRGMAVTISVKSEKISTLSSENKIISFKEMNPPDNIKDTKSDIIFFQRSVPGHDNKMQFESSSYEGYFLASEKERDLFKLILKKEDELGDRSIMFTVQNED | 0.21 | 0.14 | 0.18 | 0.16 | 0.15 | 0.18 | 1.33 | 0.94 | 0.98 |  |  |  |  |  |  |  |  | 
